Molecular target: the molecule itself
Experiment: SEC; untagged proteins after on-column TEV cleavage, Superdex 200-HR, 50 mM Tris/HCl pH 8.0, 100 mM NaCl, 2 mM MgCl2, 0.3 mL/min; calibrated with marker proteins

B1: untagged human Fhit (natural protein)
chain: not shown
notes: Fhit (fragile histidine triad), human, 147 amino acids, ~17 kDa; also called fragile histidine triad
- stoichiometry N: 2
